Results as given in US20100098704A1 (CELLDEX THERAPEUTICS, published 2010).

T1: soluble recombinant human DEC-205 fusion protein (DEC-205 extracellular domain comprising all ten … (human))
T1 chain: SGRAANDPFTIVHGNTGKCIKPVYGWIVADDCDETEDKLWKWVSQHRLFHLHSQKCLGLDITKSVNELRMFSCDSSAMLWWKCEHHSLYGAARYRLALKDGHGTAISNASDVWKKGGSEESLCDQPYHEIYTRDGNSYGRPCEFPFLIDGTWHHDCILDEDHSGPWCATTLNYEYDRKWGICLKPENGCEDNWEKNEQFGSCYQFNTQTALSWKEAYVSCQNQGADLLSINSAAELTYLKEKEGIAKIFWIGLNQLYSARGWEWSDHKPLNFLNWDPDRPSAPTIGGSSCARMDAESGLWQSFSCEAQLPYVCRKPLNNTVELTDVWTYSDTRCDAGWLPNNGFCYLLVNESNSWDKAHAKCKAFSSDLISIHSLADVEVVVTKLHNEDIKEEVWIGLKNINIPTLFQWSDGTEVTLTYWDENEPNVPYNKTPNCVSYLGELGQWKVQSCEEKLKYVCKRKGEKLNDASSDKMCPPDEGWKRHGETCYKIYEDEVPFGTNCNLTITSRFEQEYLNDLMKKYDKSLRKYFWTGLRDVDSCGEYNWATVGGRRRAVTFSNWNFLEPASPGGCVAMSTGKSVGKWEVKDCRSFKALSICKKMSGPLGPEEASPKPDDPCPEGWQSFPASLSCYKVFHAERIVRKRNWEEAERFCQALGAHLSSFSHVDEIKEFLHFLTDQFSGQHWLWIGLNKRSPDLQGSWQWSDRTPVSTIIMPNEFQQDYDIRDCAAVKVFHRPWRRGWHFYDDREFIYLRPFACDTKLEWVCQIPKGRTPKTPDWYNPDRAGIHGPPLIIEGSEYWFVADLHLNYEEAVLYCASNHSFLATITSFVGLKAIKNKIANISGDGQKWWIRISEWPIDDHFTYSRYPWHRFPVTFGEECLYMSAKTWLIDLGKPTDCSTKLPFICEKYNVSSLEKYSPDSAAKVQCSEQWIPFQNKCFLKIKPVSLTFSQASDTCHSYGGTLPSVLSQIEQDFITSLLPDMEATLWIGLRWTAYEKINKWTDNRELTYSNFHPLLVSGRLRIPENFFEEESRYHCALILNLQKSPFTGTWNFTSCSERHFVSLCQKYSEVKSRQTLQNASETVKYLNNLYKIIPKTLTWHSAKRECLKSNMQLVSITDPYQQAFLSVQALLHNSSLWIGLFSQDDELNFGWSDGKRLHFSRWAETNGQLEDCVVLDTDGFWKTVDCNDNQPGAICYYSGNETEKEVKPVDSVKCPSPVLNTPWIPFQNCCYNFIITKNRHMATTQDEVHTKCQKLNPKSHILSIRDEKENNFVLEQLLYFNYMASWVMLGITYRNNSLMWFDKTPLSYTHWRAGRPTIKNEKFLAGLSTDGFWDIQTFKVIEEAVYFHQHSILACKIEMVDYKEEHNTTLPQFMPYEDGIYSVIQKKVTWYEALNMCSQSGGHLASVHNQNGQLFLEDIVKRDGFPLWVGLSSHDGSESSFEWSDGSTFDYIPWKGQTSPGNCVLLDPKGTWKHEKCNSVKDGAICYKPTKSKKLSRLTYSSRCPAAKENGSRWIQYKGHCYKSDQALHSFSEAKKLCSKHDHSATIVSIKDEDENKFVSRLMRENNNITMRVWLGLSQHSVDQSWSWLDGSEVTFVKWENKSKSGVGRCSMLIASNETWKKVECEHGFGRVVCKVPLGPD

B1: human anti-DEC-205 monoclonal antibody 5A8-1F1 (antibody, V domains shown)
VH: QVQLVESGGGVVQPGRSLRLSCAASGFTFSTYGMHWVRQAPGKGLEWVAIIWYDGGNKYYADSVKGRFTISRDNSKNTLYLQMNSLRAEDTAVYYCARDFYWYFDLWGRGTLVTVSS
VL: EIVLTQSPATLSLSPGERATLSCRASQSVSSYLAWYQQKPGQAPRLLIYDASNRATGIPARFSGSGSGTDFTLTISSLEPEDFAVYYCQQRRTFGQGTKVEIK
B2: human anti-DEC-205 monoclonal antibody 3C7-3A3 (antibody, V domains shown)
VH: QVQLVESGGGVVQPGRSLRLSCAASGFTFSSYNMHWVRQAPGKGLEWVAFIWYDGSNKYYGDSVKGRFTISRDNSKNTLYLQMNSLRAEDTAVYYCAREELGIGWYFDLWGRGTLVTVSS
VL: B1 VL
B3: human anti-DEC-205 monoclonal antibody 3G9-2D2 (antibody, V domains shown)
VH: QVQLVESGGGVVQPGRSLRLSCAASGFTFSNYGMYWVRQAPGKGLEWVAVIWYDGSNKYYADSVKGRFTISRDNSKNTLYLQMNSLRAEDTAVYYCARDLWGWYFDYWGQGTLVTVSS
VL: EIVLTQSPATLSLSPGERATLSCRASQSVSSYLAWYQQKPGQAPRLLIYDASNRATGIPARFSGSGSGTDFTLTISSLEPEDFAVYYCQQRRNWPLTFGGGTKVEIK
B4: human anti-DEC-205 monoclonal antibody 3D6-2F4 (antibody, V domains shown)
VH: QVQLVESGGGVVQPGRSLRLSCAASGFIFSIYGMHWVRQAPGKGLEWVAVIWYDGSNKYYADSVKGRFTISRDNSKNTLYLQMNSLRAEDTAVYYCARAPHFDYWGQGTLVTVSS
VL: DIQMTQSPSSLSASVGDRVTITCRASQGISSWLAWYQQKPEKAPKSLIYAASSLQSGVPSRFSGSGSGTDFTLTISSLQPEDFATYYCQQYNSYPYTFGQGTKLEIK
notes: also called mAb #5

Legend:
[1] = molecular target: T2, human Dendritic and Epithelial Cell 205 receptor (DEC-205) expressed on cells (human, UniProt O60449 28-1722); assay: flow cytometry, human monocyte-derived dendritic cells, saturating antibody, PE goat anti-human IgG Fc [D]
[2] = molecular target: T1, soluble recombinant human DEC-205 …; assay: SPR (Biacore 2000), DEC-205 fusion protein amine-coupled to CM5 chip, antibody flowed, 1:1 Langmuir fit, mean of two series
[3] = molecular target: T2, human Dendritic and Epithelial Cell 205 …; assay: flow cytometry, human monocyte-derived dendritic cells, saturating antibody, PE goat anti-human IgG Fc [F]
[4] = molecular target: T2, human Dendritic and Epithelial Cell 205 …; assay: flow cytometry, human monocyte-derived dendritic cells, saturating antibody, PE goat anti-human IgG Fc [C]
[5] = molecular target: T2, human Dendritic and Epithelial Cell 205 …; assay: flow cytometry, CHO-S cells expressing human DEC-205 against control CHO-S cells, saturating antibody, PE goat anti-human IgG Fc [A]

Binder | binding result [1] | Ka [2] | Kd [2] | koff [2] | kon [2] | binding result [3] | binding result [4] | binding result [5]
B1 | binds | 2.1e+09 M⁻¹ | 1.5 nM | 0.0002 s⁻¹ | 360000 M⁻¹ s⁻¹ |  |  | 
B2 |  | 5.2e+08 M⁻¹ | 5.6 nM | 0.00076 s⁻¹ | 170000 M⁻¹ s⁻¹ | binds |  | 
B3 |  | 4.7e+09 M⁻¹ | 0.24 nM | 0.00019 s⁻¹ | 900000 M⁻¹ s⁻¹ |  | binds | 
B4 |  | 1.5e+10 M⁻¹ | 0.08 nM | 0.00012 s⁻¹ | 1.8e+06 M⁻¹ s⁻¹ |  |  | binds
